This note sets out measurements from paper PMC13370696, “Anemia‐associated mutations disrupt the CDIN1‐Codanin1 complex in inherited congenital dyserythropoietic anemia I (CDA‐I) disease” (The Febs Journal, 2026).

By stoichiometry N is commonly meant a count of units in the complex or per binding partner.

Sequences and labels used below:
B1: CDAN1-interacting nuclease 1 (CDIN1), full length, bacterial (natural protein, human, UniProt Q9Y2V0 1-281, looked up)
chain: MILTKAQYDEIAQCLVSVPPTRQSLRKLKQRFPSQSQATLLSIFSQEYQKHIKRTHAKHHTSEAIESYYQRYLNGVVKNGAAPVLLDLANEVDYAPSLMARLILERFLQEHEETPPSKSIINSMLRDPSQIPDGVLANQVYQCIVNDCCYGPLVDCIKHAIGHEHEVLLRDLLLEKNLSFLDEDQLRAKGYDKTPDFILQVPVAVEGHIIHWIESKASFGDECSHHAYLHDQFWSYWNRFGPGLVIYWYGFIQELDCNRERGILLKACFPTNIVTLCHSIA
notes: CDIN1 (C15orf41), human, full length, 281 amino acids; Eluted from the Im7 column by cleavage with His-tagged Ulp1; plasmid pl21 (TriAltus); The anticipated homodimer mass is printed as 67 kDa; Alone in solution it is mainly a homodimer; also called C15orf41
B2: Codanin1 C-terminus (amino acids 1005-1227), labeled with Alexa Fluor 488 (domain or fragment, human, UniProt Q8IWY9 1005-1227, looked up)
chain: AARGERRGCSRACEHHAPLPSHLISEIKDVLSLAVGPRDPDEGVSPEHLEQLLGQLGQTLRCRQFLCPPAEQHLAKCSVELASLLVADQIPILGPPAQYRLERGQARRLLHMLLSLWKEDFQGPVPLQLLLSPRNVGLLADTRPREWDLLLFLLRELVEKGLMGRMEIEACLGSLHQAQWPGDFAEELATLSNLFLAEPHLPEPQLRACELVQPNRGTVLAQS
modifications: Alexa Fluor 488 covalently attached (carboxylic acid, 2,3,5,6-tetrafluorophenyl ester); site not stated; degree of labeling over 90%
notes: Codanin-1 (CDAN1), human, amino acids 1005-1227, codon-optimized for bacterial expression; Same protein as m2, with the dye; also called fluorescently labeled Codanin1_(Cterm); Codanin1_(Cterm) Alexa Fluor 488
B3: Codanin1 C-terminus (amino acids 1005-1227), bacterial (domain or fragment, human, UniProt Q8IWY9 1005-1227, looked up)
chain: B2 chain
notes: Codanin-1 (CDAN1), human, amino acids 1005-1227, codon-optimized for bacterial expression; Eluted from the Im7 column by cleavage with His-tagged Ulp1; plasmid pl21 (TriAltus); Anticipated mass is printed as 25 kDa; also called C-terminal part of Codanin1

Data set [1] concerns the molecule itself. Put plainly: SEC-MALS; CDIN1 (2 mg/mL), Codanin1_(Cterm) (2 mg/mL) or the 1:1 complex; Zenix SEC 300 column; 20 mM Tris/HCl, 150 mM NaCl, pH 8.0. In general terms: SEC sorts molecules by how far they enter the pores of the column.
Data set [2] concerns the target B3. Put plainly: AUC; sedimentation velocity, 20 °C, 50 000 rpm; 24 uM CDIN1, 24 uM Codanin1_(Cterm), or 1:1 complex at 12 uM each; 20 mM Tris/HCl, 150 mM NaCl, pH 8.0. As to conditions: both partners purified.
Data set [3] addresses B2. In words: native gel or EMSA; 1.25 uM Alexa Fluor 488-labeled Codanin1_(Cterm) with 0-20 uM CDIN1 (twofold dilutions); 20 mM Tris/HCl, 150 mM NaCl, 5% glycerol, pH 8.0; 15 min at room temperature; native 10% PAGE, 0.5x TBE, 4 °C. As to conditions: both partners purified. (Mobility shift assays separate free from complexed probe on a gel.)
In data set [4] the target is B1. Put plainly: MST; 75 nM Alexa Fluor 488-labeled Codanin1_(Cterm) with 0-5 uM CDIN1; 20 mM Tris/HCl, 150 mM NaCl, 5% glycerol, pH 8.0; 25 °C; Hill equation fit; apparent KD. The conditions noted are these: both partners purified.
Data set [5] deals with B1. Put plainly: ITC; Codanin1_(Cterm) (110 uM) titrated into CDIN1 (11 uM) in the cell; 15 °C; 20 mM Tris/HCl, 150 mM NaCl, 5% glycerol, pH 8.0; one-site binding model. The conditions noted are these: both partners purified. (In ITC the heat of successive injections is recorded.)

As for B1, the “stoichiometry N” value is 2 in data set [1], 1 CDIN1:Codanin1_(Cterm) in data set [2] and 1 CDIN1:Codanin1_(Cterm) in data set [3]. As for B2, the Kd in data set [4] is 53 ± 8 nM.

Regarding B3, the Kd in data set [5] turned out to be 20 ± 4 nM.
